Numbering of substitutions follows the chain as printed.

In assay [1] the target is T1, hen egg lysozyme (Gallus gallus (hen egg white), UniProt P00698). The experiment in a line: flow cytometry on cells. In general terms: A flow cytometer gives signals particle by particle.
The target of assay [2] is T1, hen egg lysozyme. The experiment in a line: BLI.
In assay [3] the target is T1, hen egg lysozyme. The experiment in a line: ELISA. (In general: An ELISA detects its analyte on a solid surface through an enzyme-linked reagent.)

T1 sequence (P00698 19-147): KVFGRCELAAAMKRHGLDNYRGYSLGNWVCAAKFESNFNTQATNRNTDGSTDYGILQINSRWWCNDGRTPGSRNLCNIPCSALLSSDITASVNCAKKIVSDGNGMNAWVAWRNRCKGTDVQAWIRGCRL

B1: HEL23 (antibody, V domains shown)
VH: EVQLQQSGAELMKPGASVKISCKATGYTFSNYWIGWVKQRPGHGLEWIGEILPGSGSTNYNEKFKGKATFTADTSSNTAYMQLSSLTSEDSAVYYCARDSSGGFAYWGQGTLVTVSA
VL: DIVLTQSPAIMSASLGERVTMTCTASSNVSSSYLHWYQQKPGSSPKLWIYSTSNLASGVPARFSGSGSGTSYSLTISSMEAEDAATYYCHQYHRSPPTFGAGTKLEIK
B1: the binding result with hen egg lysozyme [1] is on record as “binds”.

B2: HEL23 variant 1 (antibody, V domains shown)
VH: B1 VH with Q5R, S91G, A105V, Q109R
VL: B1 VL
As to B2, the binding result with hen egg lysozyme [2] is listed as “binds”.

B3: HEL23 variant 3 (antibody, V domains shown)
VH: B1 VH with C22S, S84N
VL: B1 VL
On to B3, for which the binding result with hen egg lysozyme [3] is on record as “binds”.

B4: HEL23 variant 5 (antibody, V domains shown)
VH: B1 VH with G54S, T78I
VL: B1 VL
On to B4, for which the binding result in the assay with hen egg lysozyme [3] is “binds”.

B5: HEL23 variant 4 (antibody, V domains shown)
VH: B1 VH with L4V, M12K, G54S, G56S, T111S
VL: B1 VL
For the molecule B5, the binding result with hen egg lysozyme [3] is given as “binds”.

These data come from paper PMC6816377 (mAbs, 2019).
